The text below walks through data of the nanobody polyreactivity screen of Harvey et al. (2022).

The data set is described as follows: yeast display, Sf9 membrane polyspecificity reagent, FACS + sequencing; frameworks hold sequencing errors. Put shortly:
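In a synthetic yeast display library (Saccharomyces cerevisiae BJ5465), nanobody expression was induced with galactose for 36–48 hours. FACS gates were set low and high (top ~1%) using anti-HA fluorescence for expression and streptavidin fluorescence for binding of the Sf9 membrane reagent. Each polyreactivity label is drawn from the gate of origin.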
For “QVQLVESGGGLVQAGGSLRLSCAASGFTFKVYNAMGWYRQAPGKERELVAAITSSVGGTYYADSVKGRFTISRDNAKNTFYLQMNSLKPEDTAVYYFATDGPISPYWEWPWLLYDYWGQGTQVTVSS”, the “polyreactivity (PSR sort gate)” value is recorded as “low polyreactivity”.

“QVQLVESGGGLVQAGGSLRLSCAASGFIFPLYTMGWDRQAPGKERELVAAISVTGGSTYYADSVKGRFTISRDNAKNTVYLQMNSLKPEDTAVYYCAADLYYIWVYGYSSAMDYWGQGTQVTLSS”: the “polyreactivity (PSR sort gate)” value was “high polyreactivity”.

As for “QVQLVESGGGLVQAGGSLPLSCAASGRIFNYYAMGWYRQAPGKERDFVATISTSGGSTYYADSVKARFTISRDNAKNTVYLQMISLKPEDTAVYYCAARRYYSLRTFLYWFSKYDYWGQGTQVTVSS”, the “polyreactivity (PSR sort gate)” value is “high polyreactivity”.

Take “QVQLVESGGGLVQAGGSLRLSCAASGGTFPYYAMGWYRQAPGKERELVADISGTDGSTYYADSVKGRFTISRDNAKNTVYLQMNSLKPEDTAVYYCNAEPHWWYWDYDYWGQGTQVTVSS”: the “polyreactivity (PSR sort gate)” value was “high polyreactivity”.

As for “QVQLVESGGGLVQAGGSLRLSCAASGRIFTTYAMGWYRQAPGKERELVASISWRVGSTYYADSVKGRFTISRDNAKITVYLQMNSLKPEETAVYYCAAVGGNYHASGLRYYWGQGNQVTVSS”, the “polyreactivity (PSR sort gate)” value is listed as “low polyreactivity”.

Regarding “QVQRVESGGGLVQAGGSLRLSCAASGVIFDDNAMGWYRQAPGKERELVAAITYRGGSTYYADSVKGRFTISRDNAKNTVYLQMNSLKPEDTAVYYCAAGGTARDDSWGQGTQVTVSS”, the “polyreactivity (PSR sort gate)” value was “low polyreactivity”.

“QVQLQESGDGLVQAVGSLRLSCAASGYISGYYYMGWYRQAPGKERELVAGIDAFGSSTNYADCVKGRFTISRDNAKNTVYLQMNSPNPEDTAVYYCAAEFDDWDYHSYWGQGTQVSVSS”: the “polyreactivity (PSR sort gate)” value was “low polyreactivity”.

Regarding “QVQLVESGGGLVQAGGSLRLSCAASGSIFRYYAMGWYIQAPGKERELVASITRGGTRTYYADSVKGRFTISRDYAQNTVYLQMNSLKPEDTAVYYCAATYAWYVAPTYDYWGQGTQVTVSS”, the “polyreactivity (PSR sort gate)” value was “high polyreactivity”.

“QVQLVESGGGLVQAGGSLRLSCAASGFTFFWYTMGWYRQAPGKERELVAAISDTGGSTYYADSVKGRFTISRDNAKNTVYLQMNSLKPEDTAVYYCAAQYVRYGHYYWGQGTQVTVSS”: the “polyreactivity (PSR sort gate)” value is recorded as “high polyreactivity”.

Take “QVQLVETGGGLVQAGGSLRLSCAASGRIFPFYAMGWYRQAPGKERELVAAISWNGGSTFYADSVKGRFTISRDNAKNTVYLQMHSLKPEDTAVYYCNADFRPAYTYDYWGQGTQVTVSS”: the “polyreactivity (PSR sort gate)” value is listed as “low polyreactivity”.

As for “QVQLVESVGGLVQAGGSLRLSCAASGITFYSYDMGWYRQAPGKERELVAAITYRGGSTYYADSVKGRFTISRDNAKNTVYLQMNSLKPEDTAVYYCNADLLPADAPLWVTGGDYWGQGTQVTVSS”, the “polyreactivity (PSR sort gate)” value is on record as “low polyreactivity”.

For the sequence “QVQLVESGGGLVQAGGSLRLSCAASGSTVGSYAMGWYRQAPGKERELVAAITLRTDSTYYADSVKGRFTISRDNAKNTVYLQMNSLKPEETAVYYCARRYRYGYDYWGQGTQVTVSS”, the “polyreactivity (PSR sort gate)” value was “low polyreactivity”.

For the sequence “QVQLVESGGGLVQAGGSLRLSCAASGSIFGINAMGWYRQAPGKERELVAAISGSTSRTYYADSVKGRFTISRDTAKNTVYLQMNSLKPEDTAVYYCARVKGVYHFSILDYWGQGTQVTVSS”, the “polyreactivity (PSR sort gate)” value is “high polyreactivity”.

“QVQLVESGGGLVQAGGSLRLSCAASGSIYSINAMGWYRQAPGKERELVAAISWSGGSTYYADSVKGRFTISRDNAKNTVYLQMNSLKPEDTAVYYCNAEEDEYGELDYWGQGTQVTVSS”: the “polyreactivity (PSR sort gate)” value is on record as “low polyreactivity”.

Consider “QVQLVESGGGLVQAGGSLRLSCAASGRNFYSNAMGWYRQAPGKERELVAAIRWRDGSTYYADSVKGRFTISRDNAKNTVYLQMNSLKPEDTAVYYCAAVYWGEEYEYWGQGTQVTVSS”, for which the “polyreactivity (PSR sort gate)” value is “low polyreactivity”.

“QVQLVESGGGLVQAGGSLRLSCAASGRIFNRNAKGWYRQAPGKERELVAAISSDTSTNYADSVKGRFTISRDNAKNTVYLQMNCLKPEDTAVYYCATKYGTSNWYNTYYYWGQGTQVTVSS”: the “polyreactivity (PSR sort gate)” value is listed as “low polyreactivity”.

On to “QVQLVESGGGLVQAGGSLRLSCAASGLTSYFYDMGWYRQAPGKERELVAAIRASAARTYYADTVKGRFTISRDNAKNTVYLQMNSLKPEDTAVYSCAARYGYWRQFRWKYDYWGHGTQVTVSS”, for which the “polyreactivity (PSR sort gate)” value is “high polyreactivity”.

In the case of “QVQLVESGGGLVQAGGSLRLSCAASGRIRYAMGWYRQAPGKERELVAGIRWSGTSTYYADSVKGRFTISRDNAKNTVYLQMNSLKPEDTAVYYCNAKAQSRYVRYGYWGQGTQVSVSS”, the “polyreactivity (PSR sort gate)” value is recorded as “high polyreactivity”.

For the sequence “QVQLVESGGGLVQAGGSLRLSCAASGRTFAGYAMGWYRQAPGKERELVAGISVDDSTTYYADSVKGRFTISRDNAKNTVYLQMNSLKPEDTAVYYCAAEREKTLYYLSRFDYWGQGTQVTVSS”, the “polyreactivity (PSR sort gate)” value is reported as “low polyreactivity”.

Turning to “QVQLVESGGGLVQAGGSLRLSCAASGFTFDFYAMGWYRQAPGKDRELVAAISRSGGRTYYADSVKGRFTISRDNAKNTVYLQMNSLKPEDTAVYYCAAVDIIPVRMEYWGQGTQVTVSS”, the “polyreactivity (PSR sort gate)” value is recorded as “high polyreactivity”.

For the sequence “QVQLVESGGGLVQAGGSLRISCAASGLTFTDYAIGWYRQAPGKERELVAGIWDGGSTYYADSVKGRFTISRDNAKNTVYLQMNSLKAEDTAVYSCAVRTSRLLREFGYSYWGQGTQVTVSS”, the “polyreactivity (PSR sort gate)” value is recorded as “high polyreactivity”.

On to “QVQLVESGGGLVQAGGSLRLSCAASGRTFQFYVMGWYRQAPGKERELVASIRSGGSTNYADSVKGRFTISRDNAKNTVYLQMNSLKPEDTAVYYFAARVASPYYRYDFWGQGTQVTVSS”, for which the “polyreactivity (PSR sort gate)” value is on record as “low polyreactivity”.

For the sequence “QVQLVESGGGLVQAGGSLRLSCAASGRIFWGNAMGWYRQAPGKEREFVAGITGIGGRTYYADSVKGRFTISRDNAKNTVYLQMNSLKPEDTAVYYCARTWAVSYGYAMDYWGQGTQVTVSS”, the “polyreactivity (PSR sort gate)” value is reported as “low polyreactivity”.

As for “QVQLVESGGGLVQAGGSLRLSCAASGITFGRNTMGWYRQAPGKERELVAAIDSGGNTYADSVKGRFTISRDNAKNTVYLQMNSLKPEDTAVYYCATVADEPRAYSGYEESDYWGQGTQVTVSS”, the “polyreactivity (PSR sort gate)” value is given as “low polyreactivity”.

For the sequence “QDQLVESGGGLVQAGGSLRLSCAASGSIFYWYAMGWYRQAPGKERELVAAISKSGGSTYYADSVKGRFTISRDTAKNTVYLQMNSLKPEDTAVYYCAARYLYQGYRFDYWGQGTQVTVSS”, the “polyreactivity (PSR sort gate)” value was “high polyreactivity”.

In the case of “QVQLVESGGGLVQAGGSHRLSCAASGFIFGINVMGWYRQAPGKERELVAAISGSGSSTYYADSVKGRFTISRDNAKNTVYLQMNSLKPEDTAVYYCAARSVSTLRFTSRKLRYDYWGQGTQVTVSS”, the “polyreactivity (PSR sort gate)” value is given as “high polyreactivity”.

Take “QVQLVESGGALVQAGGSLRLSCAASGRIFVVNAMGWYRQAPGKERELGAAISIRGTRTYYADSVKGRFTISRDNAKNTVYLQMNSLKPEDTAVYYCAADASYTEGMDYWGQGTQVTVSS”: the “polyreactivity (PSR sort gate)” value is listed as “high polyreactivity”.

For “QVQLVESGGGLVQAGGRLRLSCAASASTFSDYAMGWYRQAPGKERELVATITSTGDTNYADSVKGRFTISRDNAKNTVYFQMYSLKPVDTAVYYCAAQHKKYGKRGLWNNFGYWGQGTQVTVSS”, the “polyreactivity (PSR sort gate)” value is “low polyreactivity”.

Take “QVQLVESGGGLVQAGGSLRLSCAASGRTFLRNAMGWYRQAPGKERELVAAITSSGGRTYYADSVKGRFTISRDNAKNTVYLQMNSLKPEDTAVYYCAVDVTVREWFEYYYWGQGTQVTVSS”: the “polyreactivity (PSR sort gate)” value is on record as “high polyreactivity”.

“QVQLVESGGGLVQAGGSLRLSCAASGSTLAPYVMGWYIQAPGKERELVAVISTRTGRTYYAVSVKGRFTISRDNAKNTVYLQMNSLKPEDTAVYYCAAAYGWSWYRYDYWGQGTQVTVSS”: the “polyreactivity (PSR sort gate)” value was “high polyreactivity”.

Take “QVQLVESGGGLVQAGGSLRLSWAASGSTLLSNAMGWSTQAPGKERELVAAINYSGGRTYYADSVKGRFTISRDHAQNTVYLQMNSLKPEDTAVYYCNALSSGHGSSSRYDYWGQGTQVTVSS”: the “polyreactivity (PSR sort gate)” value is “low polyreactivity”.

Take “QVQLLESGGGLVQAGGSLRLSCAASGWYRQAPGKERELVAAITYSGGSTYYADSVKGRFTISRDNAKNTVYLQMNSLKPEDTAVYYCAVATGLLYKSHGYWGQGTQVTVSS”: the “polyreactivity (PSR sort gate)” value is “low polyreactivity”.

With “QVQLVESGGGLVQAGGSLRLSCAASGFTFAKNAMGWYRQAPGKERELVADITYSGGSTYADSVKGRFTISRDNAKNTVYLQMNSLKPEETAVYYCAADARRRSGYDYWGQGTQVSVSS”, the “polyreactivity (PSR sort gate)” value is “low polyreactivity”.

Take “QVQLVESGGGLVQAGCSLRLSCAASGRIFQTNVMGWYRQAPGKDRELVAAISYRGGTTYYADSVKGRFTISRDNAKNTVYLQMNSLKPEDPAVYYCAALHYRIRRTGMDYWGQGTQVTVSS”: the “polyreactivity (PSR sort gate)” value is reported as “low polyreactivity”.

On to “QVQHLESGGGVVQAGGSIRLSCAASVIIFRAYAMGWYRQAPGKERELVAAITSRGGSTYYADSVKGRFTFSRDNAKNTVYLQMNSLKQEDTAVYYCNAAALADYDYWGQGTQVTLSS”, for which the “polyreactivity (PSR sort gate)” value is listed as “low polyreactivity”.

Consider “QVQLVESGGGLVQAGGSLRLSCAASGRTFSYYAMGWYRQAPGKERELVASISYSAGRTYYADSVKGRFTISRDNAKNTVYLQMNSLKPEDTAVYYCAVRGVRRFPVRTGSYTRYGDYYWGQGTQVTVSS”, for which the “polyreactivity (PSR sort gate)” value is recorded as “high polyreactivity”.

For “QVQLVESGGGLVQAGGSLRLSCAASGLIFVYNAMGWYRQAPGKEREFVAGITSGGSTNYADSVKGRFTISRDNAKNPVYLQMNSLKPEDTAVYDCAAGYYDLYLWWGYDYWGQGTQLTVSS”, the “polyreactivity (PSR sort gate)” value is reported as “high polyreactivity”.

As to “QVQLVESGGGLVQAGGSLRLSCAASGRTFLPYAMGWYRQAPGKERELVAAIDSSGGSTYYADSVKGRFTISRDNAKNTVYLQMNSLKPEDTAVYYCAADLYSSYYLYDSWGQGTQVTVSS”, the “polyreactivity (PSR sort gate)” value was “low polyreactivity”.

Regarding “QVQLVESGGRLLQEGGSLRLSCAASGLIVTYYTMGWYRPAPGKERELVASIDSGGSTNYADSVQGRFTISRDNAKNTVYLQLNCLKPEDTAVEFCAADYDGWFYEMGYWGQGTQVTVSS”, the “polyreactivity (PSR sort gate)” value is reported as “low polyreactivity”.

In the case of “QVQLVESRGGLVQAGGSLRLSCAASGSTLYLYALGWYRQAPGKERELVAAISQSGTRTYYADSVKGRFTISRDNAKNTVYLQMNSQKPEDTAVSYCAAGRYQPYSYDYWGQGTQVTVSS”, the “polyreactivity (PSR sort gate)” value is recorded as “high polyreactivity”.

On to “QVQLVESGGGLVQAGGSLRLSCAVSGRIFRRNVMGWYRQAPGKERELVAGISYSGDSTYYADSVKGRFTLSRDNAKITDYLQMNSLKPEDTAVYYCATRYTYSTDTGYDYWGQGTQVTVSS”, for which the “polyreactivity (PSR sort gate)” value is given as “low polyreactivity”.
